Measurements published in patent US20210207126A1.
Values belong to the binder of their own block, whether it stands above or below them.

Assays:
[1] = molecular target: CD137 antigen used to stain yeast (human) (UniProt Q07011); experiment: flow cytometry of yeast displaying the scFv, quadrant plot; the other quadrants read 0.39% (upper left), 34.3% (lower left), 3.83% (lower right)
[2] = molecular target: CD137 antigen used to stain yeast (human) (UniProt Q07011); experiment: flow cytometry of yeast displaying the scFv, CD137 binding against scFv display; file 01-display-C2.fcs; antigen concentration not given
[3] = molecular target: CD137 antigen used to stain yeast (human) (UniProt Q07011); experiment: flow cytometry of yeast displaying the scFv, CD137 binding against scFv display; file 01-5112.2-B5.fcs; kind of statistic and antigen concentration not given; the boxed gate is set on scFv display
[4] = molecular target: CD137 antigen used to stain yeast (human) (UniProt Q07011); experiment: flow cytometry of yeast displaying the scFv clone after TEV protease treatment, CD137 binding against scFv display; file 01-2317-B8.fcs; antigen concentration not given
[5] = molecular target: CD137 antigen used to stain yeast (human) (UniProt Q07011); experiment: flow cytometry of yeast displaying the clone after TEV protease treatment, CD137 binding against the axis printed as scFv display; file 01-2328-B11.fcs; antigen concentration not given

Chain of CD137 antigen used to stain yeast (human) (Q07011 24-186 limits assumed): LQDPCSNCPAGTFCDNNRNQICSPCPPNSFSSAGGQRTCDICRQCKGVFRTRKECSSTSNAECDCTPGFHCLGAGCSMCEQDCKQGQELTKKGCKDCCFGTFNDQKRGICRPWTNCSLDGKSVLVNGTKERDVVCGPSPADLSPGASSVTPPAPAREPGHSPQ

percent of cells in the upper right quadrant (scFv display positive and CD137 binding positive) [1]: 61.4% | Y (signal on the CD137 binding axis, FL2-A :: PE-A) [2]: 27800 | Y (signal on the CD137 binding axis, FL2-A :: PE-A) [3]: 19200
B1: scFv of TY21242 displayed on yeast (scFv, part only; not given: scFv linker, Aga2, tag, V domains shown, not shown: another chain or arm of the molecule; large carriers; small tags and cut ends)
VL: DIQLTQSPSSLSASVGDRVTITCRASQSIGSYLAWYQQKPGKAPKLLIYDASNLETGVPSRFSGSGSGTDFTLTISSLQPEDFATYYCQQGYYLWTFGQGTKVEIK
VH: EVQLVESGGGLVQPGGSLRLSCAASGFSLSTGGVGVGWIRQAPGKGLEWLALIDWADDKYYSPSLKSRLTISRDNSKNTLYLQLNSLRAEDTAVYYCARGGSDTVIGDWFAYWGQGTLVTVSS

Y (signal on the CD137 binding axis, FL2-A :: PE-A) [4]: 10100
B2: CD137 activatable antibody clone B13428 (scFv on yeast, masking peptide cleaved by TEV protease) (scFv, part only; not given: cleavage stub, scFv linker, Aga2, V domains shown, not shown: another chain or arm of the molecule; large carriers; small tags and cut ends)
VL: DIQLTQSPSSLSASVGDRVTITCRASQSIGSYLAWYQQKPGKAPKLLIYDASNLETGVPSRFSGSGSGTDFTLTISSLQPEDFATYYCQQGYYLWTFGQGTKVEIK
VH: EVQLVESGGGLVQPGGSLRLSCAASGFSLSTGGVGVGWIRQAPGKGLEWLALIDWADDKYYSPSLKSRLTISRDNSKNTLYLQLNSLRAEDTAVYYCARGGSDTVIGDWFAYWGQGTLVTVSS

Y (signal on the CD137 binding axis, FL2-A :: PE-A) [5]: 7270
B3: CD137 activatable antibody clone B13439 (scFv on yeast, masking peptide cleaved by TEV protease) (scFv, part only; not given: cleavage stub, scFv linker, Aga2, tag, V domains shown, not shown: another chain or arm of the molecule; large carriers; small tags and cut ends)
VL: DIQLTQSPSSLSASVGDRVTITCRASQSIGSYLAWYQQKPGKAPKLLIYDASNLETGVPSRFSGSGSGTDFTLTISSLQPEDFATYYCQQGYYLWTFGQGTKVEIK
VH: EVQLVESGGGLVQPGGSLRLSCAASGFSLSTGGVGVGWIRQAPGKGLEWLALIDWADDKYYSPSLKSRLTISRDNSKNTLYLQLNSLRAEDTAVYYCARGGSDTVIGDWFAYWGQGTLVTVSS
